Experimental data taken from PMC11811016 (Nature Communications, 2025).

Biological target: T1, recombinant his-PGC-1α (mouse, UniProt O70343 1-797, labeled with red-tris-NTA 2nd generation His-tag labeling kit)
T1 sequence (looked up): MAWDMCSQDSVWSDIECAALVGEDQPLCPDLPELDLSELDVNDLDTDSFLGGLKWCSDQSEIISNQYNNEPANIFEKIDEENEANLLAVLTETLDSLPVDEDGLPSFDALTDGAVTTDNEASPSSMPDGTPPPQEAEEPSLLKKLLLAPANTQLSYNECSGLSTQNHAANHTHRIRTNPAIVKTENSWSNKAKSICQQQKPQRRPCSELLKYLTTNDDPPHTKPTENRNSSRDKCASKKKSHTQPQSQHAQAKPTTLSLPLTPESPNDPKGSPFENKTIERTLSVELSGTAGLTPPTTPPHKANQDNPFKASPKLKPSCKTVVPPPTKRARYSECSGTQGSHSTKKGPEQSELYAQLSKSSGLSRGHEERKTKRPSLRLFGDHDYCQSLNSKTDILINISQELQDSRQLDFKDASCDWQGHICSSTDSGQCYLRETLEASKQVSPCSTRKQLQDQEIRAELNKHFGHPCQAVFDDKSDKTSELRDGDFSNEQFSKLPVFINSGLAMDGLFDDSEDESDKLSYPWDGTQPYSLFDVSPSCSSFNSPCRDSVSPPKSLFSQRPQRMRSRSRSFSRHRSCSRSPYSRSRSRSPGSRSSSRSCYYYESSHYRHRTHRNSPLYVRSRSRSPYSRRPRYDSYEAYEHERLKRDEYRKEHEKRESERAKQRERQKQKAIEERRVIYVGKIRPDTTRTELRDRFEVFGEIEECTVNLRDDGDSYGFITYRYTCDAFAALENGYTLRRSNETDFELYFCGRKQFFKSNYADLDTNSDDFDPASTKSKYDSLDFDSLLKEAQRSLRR
Test: MST

B1: purified KMT5C protein (his tag cleaved) (enzyme)
chain: not shown
  Kd: 1730 nM
